Experimental data: article doi:10.64898/2026.08.16.745104, “C. elegans Dicer stacks with the RIG-I-like receptor DRH-1 to cleave dsRNA”

Biological target: DCR-1;DRH-1;RDE-4 (Caenorhabditis elegans;Caenorhabditis …, UniProt P34529;G5EDI8;G5EBF5 1-1910;1-1037;1-385, ||)
Test: cryo-EM structure, 3.0 A; 5 mM ATP, 20 C; ADP modelled in DCR-1, DRH-1 and DRH-1*; Mg2+; cleavage-competent state, poised for second cleavage; RDE-4 dsRBM2 density not seen; Cryo-EM; sample buffer not given in material. Lysis/resuspension buffer 25 mM HEPES pH 7.5, 10 mM KOAc, 2 mM Mg(OAc)2, 100 mM KCl, 1 mM TCEP, 5% glycerol; RNA annealed in 50 mM Tris pH 8.0, 20 mM KCl; ATP sample incubated at 20 C
Conditions: protein: recombinant;recombinant;recombinant; (StrepTrap purification); copies: 1;1;1; 2 nt 3' overhangs at both termini

DCR-1;DRH-1;RDE-4, sequence (P34529 whole entry, chain 1 of 3): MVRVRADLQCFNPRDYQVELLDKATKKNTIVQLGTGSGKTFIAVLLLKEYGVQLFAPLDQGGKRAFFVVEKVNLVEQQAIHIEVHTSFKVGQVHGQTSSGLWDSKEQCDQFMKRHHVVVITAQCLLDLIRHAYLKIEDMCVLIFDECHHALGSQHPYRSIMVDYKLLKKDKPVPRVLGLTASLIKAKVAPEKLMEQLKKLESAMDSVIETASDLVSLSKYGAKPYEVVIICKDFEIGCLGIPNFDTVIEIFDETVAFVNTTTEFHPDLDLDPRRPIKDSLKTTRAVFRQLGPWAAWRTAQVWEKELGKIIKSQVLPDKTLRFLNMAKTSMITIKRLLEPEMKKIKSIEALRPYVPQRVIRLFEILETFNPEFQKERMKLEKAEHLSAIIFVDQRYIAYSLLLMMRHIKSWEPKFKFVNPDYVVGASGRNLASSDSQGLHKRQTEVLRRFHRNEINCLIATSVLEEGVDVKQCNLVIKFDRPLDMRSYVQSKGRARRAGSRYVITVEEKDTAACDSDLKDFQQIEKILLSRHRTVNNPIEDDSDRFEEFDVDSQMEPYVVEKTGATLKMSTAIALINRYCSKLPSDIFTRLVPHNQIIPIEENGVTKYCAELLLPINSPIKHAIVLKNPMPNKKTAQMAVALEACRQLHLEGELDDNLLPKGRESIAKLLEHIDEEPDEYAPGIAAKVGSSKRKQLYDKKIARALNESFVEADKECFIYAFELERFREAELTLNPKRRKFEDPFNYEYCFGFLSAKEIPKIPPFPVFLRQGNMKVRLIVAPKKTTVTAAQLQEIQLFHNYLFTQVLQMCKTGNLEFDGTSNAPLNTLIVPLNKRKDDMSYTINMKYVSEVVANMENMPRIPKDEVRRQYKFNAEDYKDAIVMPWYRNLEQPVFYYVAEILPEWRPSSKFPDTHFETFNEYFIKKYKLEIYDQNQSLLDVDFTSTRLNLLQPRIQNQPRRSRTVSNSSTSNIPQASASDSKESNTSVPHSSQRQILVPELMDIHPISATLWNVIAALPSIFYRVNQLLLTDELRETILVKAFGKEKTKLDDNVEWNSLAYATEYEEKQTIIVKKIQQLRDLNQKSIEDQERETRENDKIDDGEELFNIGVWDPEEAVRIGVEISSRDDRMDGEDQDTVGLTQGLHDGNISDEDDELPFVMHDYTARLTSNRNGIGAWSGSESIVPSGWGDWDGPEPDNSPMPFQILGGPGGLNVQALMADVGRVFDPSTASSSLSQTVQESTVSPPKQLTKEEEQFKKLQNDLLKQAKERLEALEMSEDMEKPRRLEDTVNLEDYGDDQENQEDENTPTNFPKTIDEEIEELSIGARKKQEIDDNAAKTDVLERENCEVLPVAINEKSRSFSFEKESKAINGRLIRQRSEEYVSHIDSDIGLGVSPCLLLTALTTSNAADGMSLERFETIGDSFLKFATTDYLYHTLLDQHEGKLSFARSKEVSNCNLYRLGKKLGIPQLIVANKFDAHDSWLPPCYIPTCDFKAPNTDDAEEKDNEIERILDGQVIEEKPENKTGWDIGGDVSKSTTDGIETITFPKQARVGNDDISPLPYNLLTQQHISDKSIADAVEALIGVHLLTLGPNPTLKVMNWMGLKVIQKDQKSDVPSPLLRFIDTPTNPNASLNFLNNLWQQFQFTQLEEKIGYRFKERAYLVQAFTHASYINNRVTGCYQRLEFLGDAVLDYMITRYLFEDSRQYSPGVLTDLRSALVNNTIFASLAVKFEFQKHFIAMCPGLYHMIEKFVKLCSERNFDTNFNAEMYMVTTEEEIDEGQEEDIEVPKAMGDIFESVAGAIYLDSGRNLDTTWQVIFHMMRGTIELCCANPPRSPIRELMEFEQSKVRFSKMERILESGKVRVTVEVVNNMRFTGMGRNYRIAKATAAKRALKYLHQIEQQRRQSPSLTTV
DCR-1;DRH-1;RDE-4, sequence (chain, as listed by the source ||, chain 2 of 3): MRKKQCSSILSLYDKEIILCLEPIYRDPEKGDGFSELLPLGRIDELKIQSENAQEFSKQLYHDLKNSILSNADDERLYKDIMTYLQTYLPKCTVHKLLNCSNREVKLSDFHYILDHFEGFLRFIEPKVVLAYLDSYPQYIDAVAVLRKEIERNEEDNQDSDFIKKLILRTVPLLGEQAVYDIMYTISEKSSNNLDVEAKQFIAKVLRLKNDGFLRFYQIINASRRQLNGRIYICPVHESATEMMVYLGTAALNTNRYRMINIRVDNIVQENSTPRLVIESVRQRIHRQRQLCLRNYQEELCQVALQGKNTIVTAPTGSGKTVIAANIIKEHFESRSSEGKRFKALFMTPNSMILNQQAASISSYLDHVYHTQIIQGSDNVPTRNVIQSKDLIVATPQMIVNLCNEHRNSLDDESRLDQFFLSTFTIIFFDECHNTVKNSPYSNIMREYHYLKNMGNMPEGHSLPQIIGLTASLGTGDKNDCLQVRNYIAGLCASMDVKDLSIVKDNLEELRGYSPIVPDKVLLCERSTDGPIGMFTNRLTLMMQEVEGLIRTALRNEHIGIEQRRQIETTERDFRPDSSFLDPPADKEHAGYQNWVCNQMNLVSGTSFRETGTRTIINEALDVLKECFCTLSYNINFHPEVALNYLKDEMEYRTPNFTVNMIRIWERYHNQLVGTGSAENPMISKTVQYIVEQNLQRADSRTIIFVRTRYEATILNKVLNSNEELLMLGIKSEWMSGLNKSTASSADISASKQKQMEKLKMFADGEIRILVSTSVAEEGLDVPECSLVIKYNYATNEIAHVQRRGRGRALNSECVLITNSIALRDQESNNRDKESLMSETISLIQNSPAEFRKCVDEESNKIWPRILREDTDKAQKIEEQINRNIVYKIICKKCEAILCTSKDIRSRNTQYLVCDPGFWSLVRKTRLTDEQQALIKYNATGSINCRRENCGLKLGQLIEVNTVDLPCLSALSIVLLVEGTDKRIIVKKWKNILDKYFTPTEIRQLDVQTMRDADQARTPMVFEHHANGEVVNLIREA
DCR-1;DRH-1;RDE-4, sequence (chain, as listed by the source ||, chain 3 of 3): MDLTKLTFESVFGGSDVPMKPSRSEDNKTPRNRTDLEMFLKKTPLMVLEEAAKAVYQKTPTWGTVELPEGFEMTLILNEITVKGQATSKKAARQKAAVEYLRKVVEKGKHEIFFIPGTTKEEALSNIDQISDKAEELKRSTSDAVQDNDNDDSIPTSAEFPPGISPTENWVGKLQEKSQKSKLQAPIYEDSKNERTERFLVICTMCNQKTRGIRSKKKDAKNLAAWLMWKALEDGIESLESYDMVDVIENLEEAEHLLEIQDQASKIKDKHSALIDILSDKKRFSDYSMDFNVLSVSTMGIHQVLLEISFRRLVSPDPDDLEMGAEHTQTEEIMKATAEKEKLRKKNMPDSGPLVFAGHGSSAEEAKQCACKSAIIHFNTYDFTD

B1: 3'ovr 106-dsRNA (dsRNA)
RNA 1: GGCAAUGAAAGACGGUGAGCUGGUGAUAUGGGAUAGUGUUCACCCUUGUUACACCGUUUUCCAUGAGCAAACUGAAACGUUUUCAUCGCUCUGGAGUGAAUACCAA
RNA 2: GGUAUUCACUCCAGAGCGAUGAAAACGUUUCAGUUUGCUCAUGGAAAACGGUGUAACAAGGGUGAACACUAUCCCAUAUCACCAGCUCACCGUCUUUCAUUGCCAA
binding result: binds
